Results published in publication PMC8231982 (Molecules, 2021).

T1: wild-type cyanovirin-N (WT CV–N) ( (cyanobacterial lectin), UniProt P81180 1-101)
T1 construct: also called WT CV–N monomer; monomeric CV–N
T1 sequence: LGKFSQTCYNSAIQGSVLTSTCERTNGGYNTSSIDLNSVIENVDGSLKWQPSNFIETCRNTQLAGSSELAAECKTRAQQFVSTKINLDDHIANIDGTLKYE


What was measured:
Conditions in all cases: both partners purified
[1] = target: T1, wild-type cyanovirin-N (WT CV–N); assay: SPR
HA H3 top domain [2] = target: T2, HA H3 top domain ( (Figure 2 shows HA of …, UniProt P03437)); assay: SPR
T2 construct: source: HEK293T, pTT5 vector, purified via His-tag on Ni-NTA

HA H3 top domain [3] = target: T2, HA H3 top domain; assay: ELISA

Binder	Kd [1] [nM]	Kd (HA H3 top domain [2]) [nM]	koff (HA H3 top domain [2]) [s⁻¹]	kon (HA H3 top domain [2]) [M⁻¹ s⁻¹]	Kd (HA H3 top domain [3]) [nM]
HIV-1 gp140 trimer, Clade A 92 UG 037.8 (domain or fragment) not shown	120				
HC19 Fab, anti-influenza HA (Fab, V domains shown, also called anti-HA HC19; HC19 anti-influenza Fab; source: HEK293-6E, transient transfection, purified from supernatant (protein A, SEC)) VH: QVQLKESGPGLVAPSQSLSITCTVSGFLLISNGVHWVRQPPGKGLEWLGVIWAGGNTNYNSALMSRVSISKDNSKSQVFLKMKSLQTDDTAMYYCARDFYDYDVFYYAMDYWGQGTSVTVSS VL: QAVVTQESALTTSPGETVTLTCRSSTGAVTTSNYANWVQEKPDHLFTGLIGGTNNRAPGVPARFSGSLIGDKAALTITGAQTEDEAIYFCALWYSNHWVFGGGTKLTVL		64	0.0231	360000	12.5
